Data as given in US20040072319A1, “Molecules that modulate ubiquintin-dependent proteolysis and methods for identifying same” (priority 2003, published 2004).
Values joined by “and” are separate entries in the source; they are usually repeats but may differ in a detail not shown here. Equal values may be shown once. Square brackets hold non-standard residues; d marks the D form. Ends that are not written are not given here. Peptide text beside a SMILES is read from it. pY = N[C@@H](Cc1ccc(OP(=O)(O)O)cc1)C(=O)O; pT = C[C@@H](OP(=O)(O)O)[C@H](N)C(=O)O; pS = N[C@@H](COP(=O)(O)O)C(=O)O

B1: SicpT45 peptide VPVpTPSTTK (peptide)
peptide: VPV[pT]PSTTK
notes: also called Sic1 pT45 phosphopeptide; Sic1 15-pT45 peptide

Biological target: T1, Cdc4-Skp1 complexes (Saccharomyces cerevisiae, UniProt P07834)
T1 construct: made in house; host or cells: insect cells (baculovirus)
Experiment: Peptide out-competition of phosphorylated substrates binding to Cdc4-Skp1
Set-up: species or system yeast
Conditions: peptide 3, 17, 68 μM in FIG. 6f
Text: SCF complexes were purified from SF9 cells infected with recombinant baculoviruses and used in binding assays and ubiquitination reactions essentially as described (7). Gst-Skp1 expressed in BL21 codon plus cells (Stratagene) then purified on glutathione resin was used to capture full Cdc4 from insect cell lysates. Truncated forms of Cdc4 were enriched prior to Gst-Skp1 capture by affinity purification of hexahistidine fusion proteins on a metal chelate column. The Skp1-Cdc4 complexes were released from the Gst moiety by cleavage with TEV protease and further purified by size exclusion chromatography on a Superdex S75 or S200 column. Biotin labeled […]p[…] (SEQ ID NO. 1), […] (SEQ ID NO. 12), and APPLSQEpTFSDLWK (SEQ ID NO. 13) were synthesized by addition of d-biotin (Sigma) with an Fmoc-e-aminocaproic acid (Bachem) spacer to carboxy-terminal peptides. […] Streptavidin-agarose beads (Sigma) were incubated in the presence of biotinylated peptide for 90 min. at 4° C. Beads were washed 3 times and then incubated with lysates from Cdc4 expressing baculovirus infected Sf9 cells. Beads were washed 4 times, after which SDS-PAGE gel loading buffer was added and the beads were boiled for 5 min. Proteins were separated by SDS-PAGE and visualized by silver stain. Peptide out-competition of phosphorylated substrates was carried out with immunopurified Skp1^FLAG-Cdc4 from insect cells, which were incubated with phosphopeptides prior to addition of phospho-Sic1 or phospho-Cyclin E-Cdk2. For kinase inhibition assays, purified recombinant Clb5-Cdc28 complex (30 ng) was incubated with mutant forms of Sic1 (40 ng) and histone H1 (HH1, 2 μg) for 1 h on ice prior to addition of [^32P]-γ-ATP and incubation at 25° C. for 30 min. Samples were separated by SDS-PAGE and visualized by autoradiography.

T1 sequence (P07834 whole entry): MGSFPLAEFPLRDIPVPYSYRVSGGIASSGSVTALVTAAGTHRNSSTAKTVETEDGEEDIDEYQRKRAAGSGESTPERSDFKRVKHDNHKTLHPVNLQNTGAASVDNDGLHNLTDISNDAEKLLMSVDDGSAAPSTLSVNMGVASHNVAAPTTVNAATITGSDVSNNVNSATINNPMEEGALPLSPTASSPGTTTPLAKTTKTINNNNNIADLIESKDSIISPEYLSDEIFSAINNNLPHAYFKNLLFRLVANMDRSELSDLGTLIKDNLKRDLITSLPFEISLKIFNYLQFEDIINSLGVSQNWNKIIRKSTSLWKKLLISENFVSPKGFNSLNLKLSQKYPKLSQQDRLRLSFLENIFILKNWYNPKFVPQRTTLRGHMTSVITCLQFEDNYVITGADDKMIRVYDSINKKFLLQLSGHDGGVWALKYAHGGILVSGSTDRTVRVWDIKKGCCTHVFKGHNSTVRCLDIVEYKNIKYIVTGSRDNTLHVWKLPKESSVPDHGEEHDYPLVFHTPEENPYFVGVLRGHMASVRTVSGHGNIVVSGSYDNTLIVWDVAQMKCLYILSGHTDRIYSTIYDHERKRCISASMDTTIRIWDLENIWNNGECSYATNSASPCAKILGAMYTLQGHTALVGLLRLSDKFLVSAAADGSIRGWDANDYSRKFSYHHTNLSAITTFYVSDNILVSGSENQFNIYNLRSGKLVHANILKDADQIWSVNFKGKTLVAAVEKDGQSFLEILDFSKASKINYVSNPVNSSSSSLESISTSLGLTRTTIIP
T1 sequence (P52286 whole entry partner): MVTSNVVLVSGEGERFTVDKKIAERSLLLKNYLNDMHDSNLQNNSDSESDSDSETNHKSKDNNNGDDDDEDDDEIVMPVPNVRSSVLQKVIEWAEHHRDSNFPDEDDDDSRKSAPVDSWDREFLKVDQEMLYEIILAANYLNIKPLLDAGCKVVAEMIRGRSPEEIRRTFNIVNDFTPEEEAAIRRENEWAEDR

Molecule	competition with substrates (Sic1, cyclin E1, Far1) for binding to Cdc4
PKPLNLSKPIpSPPPSLKKTA (PKPLNLSKPI[pS]PPPSLKKTA) [Far 1 pS87]	nor block the interaction
Sic1 15-pT45: Sic1 phosphopeptide centered on pT45; possibly the SicpT45 peptide of Table 1	does not measurably bind Cdc4 or compete with substrates
VPVpTPSTTK (VPV[pT]PSTTK) [SicpT45]	nor block the interaction

Biological target: T2, Skp1-Cdc4 complex (yeast, UniProt P07834 1-779; P52286 1-194, limits assumed)
T2 construct: Purified complex (Gst removed by TEV, size exclusion) for fluorescence polarization and SPOTS arrays; also called Cdc4/Skp1; cdc4/skp1 complex
Experiment: fluorescence polarization, 5 nM fluorescein-labeled peptide, Cdc4/Skp1 titrated
Conditions: not given

T2 sequence (P07834 whole entry, chain 1 of 2): as the sequence (P07834 whole entry) above
T2 sequence (P52286 whole entry, chain 2 of 2): as the sequence (P52286 whole entry partner) above

Molecule	Kd [µM]
CycE-5mer LLpTPP (peptide)	0.85
CycEK2-9mer GLLpTPKQSG (peptide)	6.3
CycEK3-9mer GLLpTPPKSG (peptide)	5.1
CycEK4-9mer GLLpTPPQKG (peptide)	4.3
CycEK5-9mer GLLpTPPQSK (peptide)	2.4
CycEK-1-9mer GLKpTPPQSG (peptide)	6
CycEK-2-9mer GKLpTPPQSG (peptide)	12

Biological target: T2, Skp1-Cdc4 complex
Experiment: fluorescence polarization
Conditions: not given

Molecule	binding result
VEQ[pT]PKKPG [p27pT187 peptide VEQpTPKKPG]	no binding (tested: up to [Cdc4/Skp1] of 10 µM)
B1	no binding (tested: up to [Cdc4/Skp1] of 10 µM)
NVQ[pT]PTLMA (also called Pcl2) [Pc12 peptide NVQpTPTLMA]	no binding (tested: up to [Cdc4/Skp1] of 10 µM)
GLL[pT]APQSG [CycEA1-9mer GLLpTAPQSG]	no binding (tested: up to [Cdc4/Skp1] of 10 µM)
GLL[pY]PPQSG (also called CycE19-pY380) [CycEpY-9mer GLLpYPPQSG]	no binding (tested: up to [Cdc4/Skp1] of 10 µM)
PKPLNLSKPI[pS]PPPSLKKTA [Far 1 pS87 peptide PKPLNLSKPIpSPPPSLKKTA]	no binding (tested: up to [Cdc4/Skp1] of 10 µM)

Biological target: Cdc4 (Saccharomyces cerevisiae, UniProt P07834)
Experiment: Fluorescence polarization equilibrium binding of peptides to Cdc4
Set-up: made in house; host or cells: Cdc4: baculovirus-infected insect (Sf9) cells; Gst-Skp1: E. coli BL21 codon plus; species or system yeast
Conditions: not given
Experimental: Equilibrium binding constant determination was carried out using fluorescence polarization on a Beacon 2000 Fluorescence Polarization System (Pan Vera, Wis.) equipped with a 100 μL sample chamber. Fluorescein-labeled probes were prepared through the reaction of carboxyterminal-peptides with 5-(and-6)-carboxyfluorescein succinimidyl ester (Molecular Probes), purified by reverse-phase HPLC, and confirmed by mass spectrometry. Binding studies were conducted with 5 nM fluorescein-labeled probe dissolved in PBS containing 100 μg/ml BSA and 1 mM dithiothreitol. Reaction mixtures were allowed to equilibrate for 10 minutes at room temperature prior to each measurement. All fluorescence polarization measurements were conducted at 22° C.

Molecule	binding to Cdc4 (in words)
GLLpYPPQSG (GLL[pY]PPQSG) [CycEpY-9mer]	failed to bind
PKPLNLSKPIpSPPPSLKKTA (PKPLNLSKPI[pS]PPPSLKKTA) [Far 1 pS87]	could neither bind stably to Cdc4
Sic1 15-pT45: Sic1 phosphopeptide centered on pT45; possibly the SicpT45 peptide of Table 1	does not measurably bind Cdc4
VPVpTPSTTK (VPV[pT]PSTTK) [SicpT45]	could neither bind stably to Cdc4

Same assay, conditions: K, (μM), Table 1; average of at least 3 sets of readings, ± SEM; ND = no binding detected up to [Cdc4/Skp1] of 10 μM; ˜ = saturation binding not achieved

Molecule	Kd [µM]
CSCC[C@H](NC(=O)[C@@H]1CCCN1C(=O)[C@@H]1CCCN1C(=O)[C@@H](NC(=O)[C@@H](NC(=O)[C@@H]1CCCN1C(=O)[C@@H]1CCCN1C(=O)c1ccc2c(c1)C(=O)OC21c2ccc(O)cc2Oc2cc(O)ccc21)C(C)C)[C@@H](C)OP(=O)(O)O)C(=O)N[C@@H](CO)C(=O)N1CCC[C@H]1C(=O)O [Ash 1 pT290, PPVpTPPMSP] (HELM PEPTIDE1{[O=C1OC2(c3ccc(O)cc3Oc3cc(O)ccc32)c2ccc(C(=O)[*:2])cc21].P.P.V.[C[C@@H](OP(=O)(O)O)[C@H](N[*:1])C(=O)[*:2]].P.P.M.S.P}$$$$V2.0)	~25
CC(C)C[C@H](NC(=O)CNC(=O)c1ccc2c(c1)C(=O)OC21c2ccc(O)cc2Oc2cc(O)ccc21)C(=O)N[C@@H](CC(C)C)C(=O)N[C@H](C(=O)N1CCC[C@H]1C(=O)N1CCC[C@H]1C(=O)N[C@@H](CCC(N)=O)C(=O)N[C@@H](CO)C(=O)NCC(=O)O)[C@@H](C)OP(=O)(O)O [CycE-9mer, GLLpTPPQSG] (HELM PEPTIDE1{[O=C1OC2(c3ccc(O)cc3Oc3cc(O)ccc32)c2ccc(C(=O)[*:2])cc21].G.L.L.[C[C@@H](OP(=O)(O)O)[C@H](N[*:1])C(=O)[*:2]].P.P.Q.S.G}$$$$V2.0)	1 ± 0.05
CC(=O)NCCCC[C@H](NC(=O)[C@@H]1CCCN1C(=O)[C@@H]1CCCN1C(=O)[C@@H](NC(=O)[C@H](CC(C)C)NC(=O)[C@H](CC(C)C)NC(=O)CNC(=O)c1ccc2c(c1)C(=O)OC21c2ccc(O)cc2Oc2cc(O)ccc21)[C@@H](C)OP(=O)(O)O)C(=O)N[C@@H](CO)C(=O)NCC(=O)O [CycEK3Ac-9mer, GLLpTPPK(Ac)SG] (HELM PEPTIDE1{[O=C1OC2(c3ccc(O)cc3Oc3cc(O)ccc32)c2ccc(C(=O)[*:2])cc21].G.L.L.[C[C@@H](OP(=O)(O)O)[C@H](N[*:1])C(=O)[*:2]].P.P.K.S.G}|PEPTIDE2{[ac]}$PEPTIDE1,PEPTIDE2,8:R3-1:R2$$$V2.0)	1 ± 0.1
CC[C@H](C)[C@H](NC(=O)[C@H](CC(C)C)NC(=O)[C@H](CCC(N)=O)NC(=O)[C@H](CCC(=O)O)NC(=O)[C@H](CCC(N)=O)NC(=O)[C@@H]1CCCN1C(=O)[C@@H](NC(=O)[C@H](Cc1ccccc1)NC(=O)[C@H](CCC(N)=O)NC(=O)[C@@H]1CCCN1C(=O)[C@H](Cc1ccccc1)NC(=O)[C@H](CCC(=O)O)NC(=O)CNC(=O)[C@@H](NC(=O)c1ccc2c(c1)C(=O)OC21c2ccc(O)cc2Oc2cc(O)ccc21)[C@@H](C)O)[C@@H](C)OP(=O)(O)O)C(=O)O [FarpT306, TGEFPQFpTPQEQLI] (HELM PEPTIDE1{[O=C1OC2(c3ccc(O)cc3Oc3cc(O)ccc32)c2ccc(C(=O)[*:2])cc21].T.G.E.F.P.Q.F.[C[C@@H](OP(=O)(O)O)[C@H](N[*:1])C(=O)[*:2]].P.Q.E.Q.L.I}$$$$V2.0)	~25
CC[C@H](C)[C@H](NC(=O)[C@@H]1CCCN1C(=O)[C@@H](NC(=O)[C@H](CC(C)C)NC(=O)[C@H](CC(C)C)NC(=O)[C@H](CCC(=O)O)NC(=O)c1ccc2c(c1)C(=O)OC21c2ccc(O)cc2Oc2cc(O)ccc21)[C@@H](C)OP(=O)(O)O)C(=O)N[C@@H](CC(C)C)C(=O)N[C@@H](C)C(=O)N[C@@H](Cc1ccccc1)C(=O)O [Pc17, ELLpTPILAF] (HELM PEPTIDE1{[O=C1OC2(c3ccc(O)cc3Oc3cc(O)ccc32)c2ccc(C(=O)[*:2])cc21].E.L.L.[C[C@@H](OP(=O)(O)O)[C@H](N[*:1])C(=O)[*:2]].P.I.L.A.F}$$$$V2.0)	~40

Same assay, conditions: dissociation constant Kd for Cdc4

Molecule	Kd
CC(C)C[C@H](NC(=O)CNC(=O)c1ccc2c(c1)C(=O)OC21c2ccc(O)cc2Oc2cc(O)ccc21)C(=O)N[C@@H](CC(C)C)C(=O)N[C@@H](COP(=O)(O)O)C(=O)N1CCC[C@H]1C(=O)N1CCC[C@H]1C(=O)N[C@@H](CCC(N)=O)C(=O)N[C@@H](CO)C(=O)NCC(=O)O [CycEpS-9mer, GLLpSPPQSG] (HELM PEPTIDE1{[O=C1OC2(c3ccc(O)cc3Oc3cc(O)ccc32)c2ccc(C(=O)[*:2])cc21].G.L.L.[O=C([C@H](COP(=O)(O)O)N[*:1])[*:2]].P.P.Q.S.G}$$$$V2.0)	6 µM
CC(C)C[C@H](NC(=O)[C@@H](NC(=O)[C@@H]1CCCN1C(=O)[C@@H](NC(=O)[C@@H]1CCCN1C(=O)[C@H](CC(C)C)NC(=O)[C@H](Cc1ccccc1)NC(=O)c1ccc2c(c1)C(=O)OC21c2ccc(O)cc2Oc2cc(O)ccc21)[C@@H](C)OP(=O)(O)O)C(C)C)C(=O)N[C@@H](CCC(=O)O)C(=O)N[C@@H](CC(=O)O)C(=O)O [Gcn4-9mer, FLPpTPVLED] (HELM PEPTIDE1{[O=C1OC2(c3ccc(O)cc3Oc3cc(O)ccc32)c2ccc(C(=O)[*:2])cc21].F.L.P.[C[C@@H](OP(=O)(O)O)[C@H](N[*:1])C(=O)[*:2]].P.V.L.E.D}$$$$V2.0)	0.675 µM and 0.88 µM
